The supplement of paper PMC10567573

B1: CASP6 (parent)
chain: TCADRDNLTRRFSDLGFEVKCFND

Variants of: B1
Assay: protein stability index of a GFP-peptide fusion (GPS, HEK-293T) (PSI 1-6); higher = more stable
Conditions: c terminus: a fixed tail appended
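Further: lentivirally expressed fusions sorted by FACS into six bins by GFP to DsRed ratio, PSI derived from sequencing read proportions per bin multiplied by bin number.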

In order of rising protein stability index:
1. R11W  1.62
2. T9F  1.94
3. D6W  2.09
4. R10W  2.17
5. D6N  2.29
6. S13V  2.32
7. R11F  2.33
8. T9W  2.34
9. R11Y  2.35
10. S13W  2.36
11. D6V  2.38
12. L8N  2.38
13. T9Y  2.41
14. D6C  2.43
15. R5F  2.43
16. D6Y  2.44
17. L8F  2.45
18. R11I  2.47
19. R10I  2.48
20. D6F  2.51
21. N7W  2.52
22. T9M  2.54
23. S13T  2.58
24. R10C  2.59
25. R5W  2.62
26. R10Y  2.65
27. R11C  2.66
28. S13C  2.67
29. T9I  2.69
30. S13Y  2.7
31. S13F  2.7
32. R5I  2.71
33. S13M  2.71
34. S13L  2.71
35. N7Y  2.72
36. D6K  2.75
37. S13I  2.75
38. D6A  2.76
39. R11V  2.76
40. N7F  2.78
41. L8W  2.79
42. R10M  2.83
43. T9N  2.83
44. R5H  2.86
45. S13P  2.86
46. T9C  2.87
47. S13H  2.88
48. N7A  2.89
49. L8Y  2.91
50. N7Q  2.92
51. R5Y  2.92
52. D6I  2.96
53. R10F  2.98
54. N7R  2.98
55. N7L  2.98
56. S13R  2.98
57. F12I  2.98
58. L8C  2.99
59. S13G  3
60. D6S  3.01
61. L8M  3.03
62. T9H  3.03
63. N7V  3.04
64. D6L  3.06
65. N7K  3.06
66. R10L  3.07
67. D6H  3.08
68. F12C  3.08
69. D6M  3.09
70. F12W  3.1
71. R11L  3.12
72. T9L  3.12
73. T9K  3.12
74. N7C  3.13
75. R10H  3.16
76. D6R  3.16
77. R10V  3.2
78. D6T  3.2
79. R11T  3.2
80. N7I  3.22
81. T9S  3.25
82. L8H  3.28
83. R10S  3.29
84. T9A  3.3
85. L8I  3.31
86. R10Q  3.33
87. R5N  3.33
88. F12L  3.33
89. N7M  3.35
90. F12R  3.35
91. R11G  3.36
92. T9R  3.36
93. L8V  3.37
94. L8A  3.38
95. R10P  3.39
96. N7P  3.4
97. N7D  3.41
98. F12M  3.42
99. D6Q  3.44
100. R5Q  3.44
101. S13N  3.44
102. S13K  3.45
103. F12Y  3.45
104. S13A  3.46
105. D6G  3.47
106. T9G  3.47
107. R10G  3.48
108. R5T  3.48
109. L8T  3.49
110. T9Q  3.49
111. R11A  3.5
112. R11H  3.5
113. R11Q  3.5
114. R5V  3.5
115. R5L  3.5
116. N7S  3.51
117. T9D  3.51
118. N7T  3.52
119. L8P  3.52
120. N7E  3.55
121. R10N  3.56
122. D6E  3.56
123. R11S  3.57
124. T9V  3.58
125. R10A  3.59
126. R5M  3.6
127. L8K  3.6
128. R10T  3.61
129. T9P  3.62
130. N7H  3.63
131. R5G  3.64
132. R11K  3.65
133. S13Q  3.65
134. L8G  3.66
135. D6P  3.68
136. R11P  3.68
137. N7G  3.71
138. R10K  3.75
139. T9E  3.75
140. R11N  3.76
141. R5K  3.77
142. R11M  3.79
143. R5S  3.8
144. F12G  3.81
145. L8S  3.82
146. R10E  3.83
147. S13D  3.83
148. S13E  3.84
149. R10D  3.96
150. F12T  3.96
151. F12Q  3.97
152. R5P  3.98
153. L8D  4.06
154. F12H  4.07
155. F12A  4.07
156. L8R  4.07
157. F12S  4.08
158. L8Q  4.08
159. F12K  4.1
160. R11D  4.12
161. R11E  4.2
162. F12V  4.21
163. F12D  4.23
164. F12P  4.32
165. F12N  4.35
166. L8E  4.42
167. F12E  4.7
